Laboratory results reported in patent US20210196823A1, “Methods of Treating Metabolic Disease” (Pfizer Inc., priority 2018, published 2021).
Each block holds one molecule with its values, some of them ahead of it.

Tests used:
[1] = test system: ERFE suppression of hepcidin production; test: NanoLuc assay: anti-ERFE antibody with monoFC-huErfe and BMP6; format: cell-based; settings: tripling dilutions from 500 nM, BMP6 625 pM, monoFC-huErfe 20 nM
Protocol: The was measured in-vitro using as follows: A hepcidin transcriptional fusion reporter assay (nano-luc or nano-luciferase assay) was developed to assess the effect of BMPs on hepcidin production in-vitro. A nanoluciferase reporter was inserted at the end of the coding sequence of the endogenous HAMP gene, in HepG2 hepatoma cells, creating a HAMP-nanoluciferase fusion. CRISPR-Cas9 was used to edit the cells with this knock-in reporter construct. A bovine Growth Hormone poly A was included after the nanoLuc to ensure proper mRNA processing. A Puromycin-TK expression cassette was also included 3′ of the nanoluc reporter to enrich for properly targeted clones. Clones that were homozygous for the HAMP-NanoLuc fusion were selected and tested for their response to BMPs and LDN(4-[6-[4-(1-Piperazinyl)phenyl]pyrazolo[1,5-a]pyrimidin-3-yl]quinoline dihydrochloride), a potent ALK2/3 BMP inhibitor, a schematic of the nano-luc construct is shown in FIG. 1B. The effect of representative BMPs (BMP, 2, 6, 9) on the Hamp-nanoLuc signal was assessed. Approximately 20,000 cells (cells split with trypsin/EDTA) were suspended in 200 uL of complete media (DMEM+10% serum+Na pyruvate) and were distributed into each well of 96-well plates and incubated for 24 hours at 37 C. […] Plates were read on Envision with Lum700 program following the manufacturer's instructions. […]

murine ERFE = target: T1, murine ERFE (Mus musculus, UniProt Q6PGN1); test: HAMP and ID1 qRT-PCR in HUH7 cells with BMP 5, 6 or 7, murine ERFE and anti-ERFE antibody 15.1; format: cell-based; settings: BMP 5, 6 or 7 2 nM, murine ERFE 1 μg/ml, antibody 10 μg/ml, 6 h
T1 sequence (Q6PGN1 25-340): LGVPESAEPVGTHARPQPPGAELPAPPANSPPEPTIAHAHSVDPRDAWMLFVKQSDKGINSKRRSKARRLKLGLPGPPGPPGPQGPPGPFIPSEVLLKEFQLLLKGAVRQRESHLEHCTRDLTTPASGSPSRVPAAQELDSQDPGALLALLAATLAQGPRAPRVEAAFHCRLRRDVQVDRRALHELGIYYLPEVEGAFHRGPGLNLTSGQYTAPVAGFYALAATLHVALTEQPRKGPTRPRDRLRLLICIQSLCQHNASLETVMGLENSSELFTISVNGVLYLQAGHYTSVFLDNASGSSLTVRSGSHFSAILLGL
Protocol: HUH7 cells treated with BMP 5, 6 or 7 (2 nM), murine ERFE (1 μg/ml) and anti-ERFE antibody 15.1 (10 μg/ml), alone or in combination, for 6 h. HAMP and ID1 gene expression was measured by qRT-PCR and expressed as fold-change relative to untreated cells, FIGS. 11A and 11B.

Huh7 cells = test: Activity of erythroferrone domains and subunits in Huh7 cells (qRT-PCR); format: cell-based; settings: FIG. 8A
Protocol: FIG. 6. The C1q domain is not required for erythroferrone activity: (FIG. 6A) Huh7 cells were treated for 24 h with full-length or C1q domain of human erythroferrone (10 μg/ml). (FIG. 6B) Huh7 cells were treated for 24 h with adipoferrone (construct containing N-terminal domain of adiponectin and C1q domain of erythroferrone) or C1q trimer (Tri-C1q) derived from mouse erythroferrone at 10 μg/ml. Gene expression measured by qRT-PCR. Data represents mean+standard deviation (n=3). ***p<0.001; ****p<0.0001.
FIG. 8. Erythroferrone subunits designed based on predicted patterns of furin cleavage differ in their ability to suppress hepcidin: (FIG. 8A) mono-Fc-huERFE A4 construct suppresses hepcidin expression, (FIG. 8B) Huh7 cells were treated for 24 h with human erythroferrone subunits that were designed to represent all the potential Erfe subunits that could be formed assuming activity at both in silico-predicted furin cleavage sites. (see FIG. 7A). Gene expression measured by qRT-PCR. Data represents mean+standard deviation (n=3). ***p<0.001; ****p<0.0001.
Erythroferrone is a member of the C1q/TNF-related protein (CTRP) family and comprises a structure composed of a signal peptide, an N-terminal, a collagen-like domain, and a globular C terminal domain homologous to complement protein 1q (C1q). […]

furin = furin (Homo sapiens, UniProt P09958); test: Furin cleavage of wild-type and RARR-AAAA (A4) Erfe mutant, Coomassie staining; format: biochemical; settings: RARR site mutated to AAAA vs wild-type
Chain of furin (P09958 108-794, species assumed): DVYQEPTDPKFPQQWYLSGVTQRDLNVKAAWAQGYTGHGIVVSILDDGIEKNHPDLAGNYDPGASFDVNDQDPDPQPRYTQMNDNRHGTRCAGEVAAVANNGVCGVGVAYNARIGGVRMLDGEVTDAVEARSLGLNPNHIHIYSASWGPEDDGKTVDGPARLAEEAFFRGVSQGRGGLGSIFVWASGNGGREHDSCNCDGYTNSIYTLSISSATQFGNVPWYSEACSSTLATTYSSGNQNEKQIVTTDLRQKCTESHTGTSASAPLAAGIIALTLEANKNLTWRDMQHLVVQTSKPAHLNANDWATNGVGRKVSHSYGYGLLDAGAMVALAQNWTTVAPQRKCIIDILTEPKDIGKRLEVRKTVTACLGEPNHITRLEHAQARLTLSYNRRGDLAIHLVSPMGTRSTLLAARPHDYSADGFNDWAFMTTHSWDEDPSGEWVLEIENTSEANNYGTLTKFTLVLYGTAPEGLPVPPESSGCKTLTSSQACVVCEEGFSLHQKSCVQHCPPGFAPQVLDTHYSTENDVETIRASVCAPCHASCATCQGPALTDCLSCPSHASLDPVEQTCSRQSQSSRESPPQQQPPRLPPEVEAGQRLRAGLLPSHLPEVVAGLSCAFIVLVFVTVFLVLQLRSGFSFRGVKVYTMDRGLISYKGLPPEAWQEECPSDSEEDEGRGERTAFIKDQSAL
Description: FIG. 7. Mutation of the RARR furin cleavage site at the N-terminal of Erfe prevents cleavage by furin. (FIG. 7A) Diagrammatic structure of full length human erythroferrone and potential subunits generated after furin cleavage. (FIG. 7B) Coomassie blue staining of wild-type and an RARR-AAAA(A4) Erfe mutant, in the presence or absence of furin protease.
Sequence analysis of human erythroferrone using the ProP software predicted two furin cleavage sites: RARR at position 42 and RLRR at position 212 (FIG. 7A). The RLRR site is conserved in the mouse ortholog (position 198).

block of ERFE activity on BMPs (HAMP and ID1 expression) (murine ERFE): prevent BMP inhibition
B1: Ab 15.1: neutralising anti-ERFE antibody; heavy and light chain SEQ ID NO: 26 and 27 (antibody)
heavy: EVQLQQSGPELVKPGASVKMSCKASGYTFTDYSMHWVKQSHGKSLEWIGYINPNSGGTSYNQKFKGKATLTVNKSSSTAYMELRSLTSEDSAVYYCVPYGYDDYWGQGTTLTVSSAKTTAPSVYPLAPVCGDTTGSSVTLGCLVKGYFPEPVTLTWNSGSLSSGVHTFPAVLQSDLYTLSSSVTVTSSTWPSQSITCNVAHPASSTKVDKKIEPRGPTIKPCPPCKCPAPNLEGGPSVFIFPPKIKDVLMISLSPIVTCVVVDVSEDDPDVQISWFVNNVEVHTAQTQTHREDYNSTLRVVSALPIQHQDWMSGKAFACAVNNKDLPAPIERTISKPKGSVRAPQVYVLPPPEEEMTKKQVTLTCMVTDFMPEDIYVEWTNNGKTELNYKNTEPVLDSDGSYFMYSKLRVEKKNWVERNSYSCSVVHEGLHNHHTTKSFSRTPG
light: DVLMTQTPLSLPVSLGDQVSISCRSSQSIVHSNGNTYLEWYLQKPGQSPKLLIYKVSNRFSGVPDRFSGSGSGTDFTLRITRVAAEDLGVYYCFQGSHVPLTFGAGTKLELKRTDAAPTVSIFPPSSEQLTSGGASVVCFLNNFYPKDINVKWKIDGSERQNGVLNSWTDQDSKDSTYSMSSTLTLTKDEYERHNSYTCEATHKTSTSPIVKSFNRNEC
inhibition of ERFE suppression of hepcidin production [1]: inhibit ERFE suppression of hepcidin production in a dose-dependent manner

clipping of human erythroferrone after treatment with furin (furin): reduced the clipping
B2: monoFC-huErfe A4: human erythroferrone mono-Fc construct with RARR furin cleavage site mutated to AAAA (protein)
chain: AAGLGSPEPGAPSRSAAAAEPPPGNELPRGPGESRAGPAARPPEPTAERAHSVDPRDAWMLFVRQSDKGVNGKKRSRGKAKKLKFGLPGPPGPPGPQGPPGPIIPPEALLKEFQLLLKGAVRQRERAEPEPCTCGPAGPVAASLAPVSATAGEDDDDVVGDVLALLAAPLAPGPRAPRVEAAFLCRLRRDALVERRALHELGVYYLPDAEGAFRRGPGLNLTSGQYRAPVAGFYALAATLHVALGEPPRRGPPRPRDHLRLLICIQSRCQRNASLEAIMGLESSSELFTISVNGVLYLQMGQWTSVFLDNASGCSLTVRSGSHFSAVLLGV
hepcidin expression (Huh7 cells): effectively suppress
